Results as given in US20190248902A1 (published 2019).

T1: Cyno ASGR-1 (cynomolgus monkey, UniProt P07306 1-291 (human entry))
T1 construct: Expressed on HEK 293 cells or as membrane prep on beads; cDNA from XP_005582755; also called cynomologus monkey ASGR-1
T1 chain: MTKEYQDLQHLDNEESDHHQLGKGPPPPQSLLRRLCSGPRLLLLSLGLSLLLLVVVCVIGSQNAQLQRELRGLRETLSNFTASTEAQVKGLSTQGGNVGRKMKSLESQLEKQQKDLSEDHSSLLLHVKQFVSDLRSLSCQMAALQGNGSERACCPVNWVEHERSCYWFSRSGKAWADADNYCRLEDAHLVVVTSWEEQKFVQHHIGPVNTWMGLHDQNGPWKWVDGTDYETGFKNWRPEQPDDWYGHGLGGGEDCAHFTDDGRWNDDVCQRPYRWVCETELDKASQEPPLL

T2: Pig ASGR-1 (pig)
T2 construct: Expressed on HEK 293 cells or as membrane prep on beads; cDNA GenBank NM_001244458
T2 chain: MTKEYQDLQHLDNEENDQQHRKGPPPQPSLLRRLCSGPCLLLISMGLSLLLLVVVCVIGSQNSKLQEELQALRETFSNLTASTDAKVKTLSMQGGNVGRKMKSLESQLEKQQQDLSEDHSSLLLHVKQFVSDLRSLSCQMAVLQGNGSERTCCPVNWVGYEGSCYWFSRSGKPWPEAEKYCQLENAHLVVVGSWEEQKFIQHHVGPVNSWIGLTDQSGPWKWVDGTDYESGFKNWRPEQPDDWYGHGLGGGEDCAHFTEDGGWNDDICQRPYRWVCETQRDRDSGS

T3: Human ASGR-2 (human, UniProt P07307 1-311)
T3 construct: Expressed on HEK 293 cells; cDNA GenBank NM_080913.3; also called huASGR-2; hASGR-2
T3 sequence: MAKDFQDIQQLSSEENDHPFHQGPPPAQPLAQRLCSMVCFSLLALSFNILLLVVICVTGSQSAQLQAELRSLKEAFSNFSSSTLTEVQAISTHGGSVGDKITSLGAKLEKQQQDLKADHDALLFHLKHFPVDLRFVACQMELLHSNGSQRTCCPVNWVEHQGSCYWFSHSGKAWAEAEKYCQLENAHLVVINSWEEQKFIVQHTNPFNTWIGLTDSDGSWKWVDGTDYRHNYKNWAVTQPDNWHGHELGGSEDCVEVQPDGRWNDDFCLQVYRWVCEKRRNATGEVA


Legend:
[1] = target: T1, Cyno ASGR-1; test: FACS on transfected HEK 293 cells or membrane preps on beads; Y = signal at least 2x irrelevant IgG
Protocol: (§1) Human ASGR-1-specific, ligand competing antibody samples were tested for binding to ASGR-1 from other species (cynomologus monkey ASGR-1, mouse ASGR-1, rat ASGR-1, dog ASGR-1, and pig ASGR-1) as well as to human ASGR-2 in FACS binding assays at normalized antibody concentrations. For cell-based assays, HEK 293 cells expressing the appropriate antigen of interest were mixed with antibody sample or controls, incubated for 1 hour at 4° C., and then washed twice. Cells with bound antibody were then incubated with Alexa Fluor® 647 IgG Fc fragment-specific detection antibody and 7-AAD viability stain for 15 minutes at 4° C., washed once and resuspended in FACS buffer. Samples were analyzed using a BD Accuri™ Flow Cytometer and an Intellicyt HyperCyt Autosampler. As a negative control, supernatants and controls were also screened against HEK 293 cells transfected with empty parental vector. […] For membrane-prep binding assays, ASGR-1 species specific membrane preps were used to coat LumAvidin® microspheres (beads) and tested for binding to selected hybridoma supernatants or controls. Briefly, ASGR-1 species specific membrane preps were incubated with streptavidin-coated LumAvidin® beads for 45 minutes in the dark at room temperature and washed twice. Beads were resuspeneded in FACS buffer containing Stabilguard®. Antigen-bound beads were then incubated with normalized antibody sample for 1 hour in the dark at room temperature, washed twice, incubated with Alexa Fluor® 488 IgG Fc fragment-specific detection antibody for 15 minutes in the dark at room temperature, washed once and finally resuspended in FACS buffer. Samples were analyzed using an Intellicyt iQue™ Screener Platform. FACS buffer supplemented with 1 mM Calcium Chloride was used in all steps. As a negative control, supernatants and controls were also screened against a non-ASGR-1 antigen membrane prep coated on the LumAvidin® beads.

[2] = target: T2, Pig ASGR-1; test: as above
Protocol: as §1

[3] = target: T3, Human ASGR-2; test: FACS on transfected HEK 293 cells; binding = signal at least 2x irrelevant IgG
Protocol: as §1

binding result [1]	binding result [2]	binding result [3]	Binder
binds	binds	no binding	194C10 (antibody, V domains shown, Tested as hybridoma supernatant at normalized concentration) VH: QVQLQQWGAGLLKPSETLSLTCAVSGGSFRYYYWSWIRQPPGKGLEWFGEINHSGSTNYNPSLKSRVTISIDTSKNQFSLKLRSVTAADTAVYYCARDYGAFDIWGQGTMVTVSS VL: EIVLTQSPGTLSLSPGERATLSCRASPSVNSGYLAWYQQKPGQTPRLLIFGASSRATGIPDRFSASGSGADFTLTISRLEPEDFAVYFCQQYESSPWTFGQGTKVEIK
binds	binds	no binding	7G4 (antibody, V domains shown, Tested as hybridoma supernatant at normalized concentration) VH: QVQLVESGGGVVQPGRSLRLSCAASGFTFNNYVMHWVRQAPGKGLEWVAVIWYDGSNKYYADSVKGRFTISRDNSKNTLYLQMTSLRAEDTAVYYCAREKYSSNWYDYGMDVWGQGTTVTVSS VL: DIQMTQSPSSLSASVGDRVTITCRASQGIRNDLGWYQQRPGKAPKRLIYAASSLQSGVPSRFSGSGSGTEFTLTISSLQPEDSATYYCLHQYSYPRTFGQGTKVEIK
binds	binds	no binding	25A4 (antibody, V domains shown, Tested as hybridoma supernatant at normalized concentration) VH: QVLLVQSGAEVKRPGASVKVSCKASGYTFTNYDINWVRQATGQGLEWMGWMYPNSGNTGYAQKFQGRVTMTRNTSISTAYMELSSLRSEDTAVYYCASSSGWYYFDYWGQGTLVTVSS VL: DIVMTQFPDSLAVSLGERATIKCKSSQSVLYSSHNNNYLAWYQQKPGQPPKLLLYWASTRESGVPDRFSGSGSGTEFTLTISSLEAEDVAVYYCQQYYSTPPTFGQGTKVEIK
binds	binds	no binding	26C4 (antibody, V domains shown, Tested as hybridoma supernatant at normalized concentration) VH: QVQLVQSGAEVKKPGASVKVSCKASGYTFTNYDINWVRQASGQGLEWMGWMNPNSGNTGYAQRFQGRVTMTRNTSINTAYMELSSLRSEDTAVYYCASSSGWYYFDYWGQGTLVTVSS VL: not shown
binds	binds	no binding	29H8 (antibody, V domains shown, Tested as hybridoma supernatant at normalized concentration) VH: QVQLVQSGAEVQKPGASVKVSCKASGYTFTNYDINWVRQATGQGLEWMGWMNPNSGNTGYAQRFQGRVTMTRNTSISAAYMELSSLRSEDTAVYYCASSSGWYYFDYWGQGTLVTVSS VL: not shown
binds	binds	no binding	12D2 (antibody, V domains shown, Tested as hybridoma supernatant at normalized concentration) VH: EVQLVESGGGLVKPGGSLRLSCAASGFTFSSYSMNWVRQAPGKGLEWVSSISSSSSYIYYADSVKGRFTISRDNAKNSLYLQMNSLRAEDTAVYYCARLGDYWGQGTLVAVSS VL: not shown
binds	binds	no binding	7E11 (antibody, V domains shown, Tested as hybridoma supernatant at normalized concentration) VH: QVQLVESGGGVVQPGRSLRLSCAASGFTFSSFGMHWVRQAPGKGLEWVAIIWHDGSNKYYADSVKGRFTISRDNSNNTLYLQMSSLRAEDTAVYYCARDLSMGGMDVWGQGTTVTVSS VL: DIQMTQSPSSLSASVGDRVTIACRASQNIISYLNWYQQKPGKAPKFLIYTASSLQSGVPSRFSGSGSGTDFTLTISSLQPEDFAIYYCQQTYSTPLTFGGGTKVEIK
binds	binds	no binding	75G3 (antibody, V domains shown, Tested as hybridoma supernatant at normalized concentration) VH: QVQLQQWGAGLLKPSETLSLTCAVYGGSLSGSYWSWIRQPPGKGLEWIGEINLSGSTNYNPSLKSRVTISVDTSKSQFSLTLRSVTAADTAVYYCARDYGGLDYWGQGTLVTVSS VL: EIVLTQSPGTLSLSPGERATLSCRARQNVDSSYLAWYQQKPGQAPRLLIYGASSRATGIPDRFSGSGSGTDFTLTISRLEPEDFAVFYCQQYERSPWTFGQGTKVEIK
binds	binds	no binding	176H4 (antibody, V domains shown, Tested as hybridoma supernatant at normalized concentration) VH: QVQLVESGGGVVQPGRSLRLSCAASGFTFSSYGMHWVRQAPGKGLEWVAIIWYDGSYKYYADSVKGRFTISRDNSKNTLYLQMSSLRAEDTAVYYCARDAHDFWSGYFAYWGQGALVTVSS VL: DIVMTQTPLSLSVTPGQPASISCKSSQSLLHGDGKTYLYWYLQKPGQPPQLLIYEVSNRFSGVPDRFSGSGSGTDFTLKISRVEAEDVGIYYCMQSIQIPWTFGQGTRVEIK
binds	binds	no binding	184E7 (antibody, V domains shown, Tested as hybridoma supernatant at normalized concentration) VH: QVQLVQSGAEVKTPGASVKVSCRASGYTFTSYNMHWVRQVPGQGLEWMGWINPNNGGSNYTQKFQGRVTMTRDTSISTAYMELSRLRSDDTAVYYCARKFGDWGQGTLVTVSS VL: DIQMTQSPSSRSASIGERVTITCRASQGISNYLAWIQQKPGTAPKSLIYAASSLQSGVSSRFSGSGFGTDFTITISSVQREDFATYYCQQYNGYPFTFGHGTKVDIK
binds	binds	no binding	48B12 (antibody, V domains shown, Tested as hybridoma supernatant at normalized concentration) VH: EVQLLESGGGLVQPGGSLRLSCAASGFTFSSYAMNWVRQAPGKGLEWVSAISGRGGNTFYADSVKGRFTISRDNSKNTLYLQMNSLRAEDTAVYYCAKRETYNWNYEGFDYWGQGTLVTVSS VL: SYELTQPPSVSVSPGQTARITCSGDALPKKYAYWYQQKSGQAPVLVIYEDSKRPSGIPERFSGSSSGTMATLTISGAQVEDEADYYCNSTDSSGNHVVFGGGTKLTVL
binds	binds	no binding	218G4 (antibody, V domains shown, Tested as hybridoma supernatant at normalized concentration) VH: QVQLVESGGGVVQPGRSLRLSCAASGFTFSSYGLHWVRQAPGKGLEWVAVIWYDGSNKYYADSVKGRFTISRDNSKNTLYLQMNSLRVEDTAVYYCANWYYYYYGMDVWGQGTTVTVSS VL: QSVLTQPPSVSAAPGQKVTISCSGSSSNIGNNYVSWYQQLPGTAPKLLLYDSNKRPSGIPARFSGSKSGTSATLGITGLQTGDEADYYCGTWDSSLNTVVFGGGTKLTVL
binds	binds	no binding	198D2 (antibody, V domains shown, Tested as hybridoma supernatant at normalized concentration) VH: QVQLVESGGGVVQPGRSLRLSCAASGFTFRSYGMHWVRQAPGKGLEWVAVIIYDGSYKYYADSVKGRFTISRDNSKNTLYLQMNSLRAEDTAVYYCARTYSGGMDVWGQGTTVTVSS VL: QSVLTQPPSVSAAPGQKVTISCSGSSSNIGSNYVSWYQQLPGTAPKVLIYDNNKRPSGIPDRFSGSKSGTSATLGITGLQTGDEADYYCGTWDSRLNVGVFGGGTKLTVL
binds	binds	no binding	202A3 (antibody, V domains shown, Tested as hybridoma supernatant at normalized concentration) VH: QVQLEQSGAEVKKPGASVKVSCKASGYTFTSYDINWVRQATGQGLEWLGWMNPKRGNTGYAQKFQGRVTMTRNTSISTAHMELSSLRSEDTAVYYCARGRYSREDYYYYYDMDVWGQGTTVTVSS VL: DIQMSQSPSSLSASVGDRVTITCRASQGIRNDLGWYQQKPGKAPKRLICAASRLQSGVPSRFSGSGSGTEFTLTISSLQPEDFAIYYCLQHHDYPFTFGPGTKVDIK
